± gives the uncertainty stated by the source.
Assay: self-splicing fitness, log relative to wild type (ln ratio); higher = more splicing; Tetrahymena group I intron in knt gene, E. coli kanamycin selection, DiMSum; sequences stand for … in CUCUCU…GGAGGGAAAAGUUAUCAGGCAUGCACCUGGUAGCUAGUCUUUAAACCAAUAGAUUGCAUCGGUUUAAAAGGCAAGACCGUCAAAUUGCGGGAAAGGGGUCAACAGCCGUUCAGUACCAAGUCUCAGGGGAAACUUUGAGAUGGCCUUGCAAAGGGUAUGGUAAUAAGCUGACGGACAUGGUCCUAACCACGCAGCCAAGUCCUAAGUCAACAGAUCUUCUGUUGAUAUGGAUGCAGUUCACAGACUAAAUGUCGGUCGGGGAAGAUGUAUUCUUCUCAUAAGAUAUAGUCGGACCUCUCCUUAAUGGGAGCUAGCGGAUGAAGUGAUGCAACACUGGAGCCGCUGGGAACUAAUUUGUAUGCGAAAGUAUAUUGAUUAGUUUUGGAGUACUCGUGGUCG
Procedure, shortened: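 Colonies from six replicate transformations of E. coli BL21(DE3) were pooled and amplicon-sequenced on an Illumina HiSeq 2500. The library placed an intron with all eight P1ex-region nucleotides randomised inside the knt kanamycin-resistance gene on pET-22b(+), and cells grew overnight at 37°C or 30°C on LB agar with or without 25 μg/mL kanamycin (plus 100 μg/mL carbenicillin, 50 μM IPTG, 0.2% rhamnose). Fitness is the DiMSum error-weighted combination of wild-type-normalised replicate fold changes, kanamycin versus none.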

Sequence	self-splicing fitness (ln) (30 °C)	self-splicing fitness (ln) (37 °C)
GCACAGCAAUAUUACGAACC	-0.135 ± 0.15	0.621 ± 0.18
GCACAGCAAUAUUACGAACU	-0.419 ± 0.056	-0.167 ± 0.072
GCACAGCAAUAUUACGACAA	-1.18 ± 0.087	-1.22 ± 0.087
GCACAGCAAUAUUACGACCU	-0.6 ± 0.11	-0.325 ± 0.13
GCACAGCAAUAUUACGACGG	-1.34 ± 0.098	-0.832 ± 0.13
GCACAGCAAUAUUACGACUU	-0.119 ± 0.076	0.33 ± 0.088
GCACAGCAAUAUUACGAGAG	-2.96 ± 0.14	-1.33 ± 0.11
GCACAGCAAUAUUACGCACC	-0.769 ± 0.13	0.129 ± 0.15
GCACAGCAAUAUUACGCAGA	-3.16 ± 0.28	-3.06 ± 0.29
GCACAGCAAUAUUACGCAGG	-3.5 ± 0.18	-2.74 ± 0.18
GCACAGCAAUAUUACGCGGU	-4.01 ± 0.2	-1.87 ± 0.11
GCACAGCAAUAUUACGCUGG	-3.29 ± 0.18	-1.92 ± 0.15
GCACAGCAAUAUUACGGAAC	-1.06 ± 0.086	-0.752 ± 0.12
GCACAGCAAUAUUACGGAGG	-2 ± 0.099	-0.502 ± 0.11
GCACAGCAAUAUUACGGAUU	-0.914 ± 0.055	-0.231 ± 0.073
GCACAGCAAUAUUACGGCAA	-1.31 ± 0.13	-0.887 ± 0.14
GCACAGCAAUAUUACGGCCA	-1.84 ± 0.21	-0.441 ± 0.19
GCACAGCAAUAUUACGGCUG	-3.49 ± 0.13	-2.4 ± 0.14
GCACAGCAAUAUUACGGGGC	-3.43 ± 0.16	-2.62 ± 0.18
GCACAGCAAUAUUACGGUCU	-0.685 ± 0.042	0.63 ± 0.06
GCACAGCAAUAUUACGGUGG	-1.54 ± 0.048	-1.35 ± 0.07

Sequence	self-splicing fitness (ln) (30 °C)	self-splicing fitness (ln) (37 °C)
GCACAGCAAUAUUACGGUUG	-2.18 ± 0.059	-1.02 ± 0.072
GCACAGCAAUAUUACGUCGG	-1.72 ± 0.1	-1.09 ± 0.13
GCACAGCAAUAUUACGUGAC	-1.13 ± 0.089	-1.97 ± 0.1
GCACAGCAAUAUUACGUUCG	-0.717 ± 0.065	-0.441 ± 0.085
GCAGAGCAAUAUUACGACCG	-3.12 ± 0.46	
GCAGAGCAAUAUUACGAGCA	-2.32 ± 0.24	-2.4 ± 0.34
GCAGAGCAAUAUUACGAGGU		-2.24 ± 0.31
GCAGAGCAAUAUUACGAGUC	-2.97 ± 0.25	-2.39 ± 0.32
GCAGAGCAAUAUUACGAUAC	-2.79 ± 0.28	-0.699 ± 0.22
GCAGAGCAAUAUUACGAUAU	-3.38 ± 0.29	-1.72 ± 0.2
GCAGAGCAAUAUUACGAUGC	-4.01 ± 0.32	-1.99 ± 0.18
GCAGAGCAAUAUUACGCAUC	-3.14 ± 0.34	
GCAGAGCAAUAUUACGCGAU	-2.94 ± 0.36	
GCAGAGCAAUAUUACGCGUC	-3.88 ± 0.2	-2.03 ± 0.14
GCAGAGCAAUAUUACGCUGU	-2.66 ± 0.18	-2.87 ± 0.23
GCAGAGCAAUAUUACGGACU	-2.18 ± 0.34	-1.9 ± 0.21
GCAGAGCAAUAUUACGGUGG	-3.65 ± 0.33	-2.21 ± 0.21
GCAGAGCAAUAUUACGGUGU	-4.3 ± 0.32	-2.31 ± 0.16
GCAGAGCAAUAUUACGUAAU	-2.29 ± 0.21	-1.95 ± 0.35
GCAGAGCAAUAUUACGUCAG		-2.97 ± 0.29
GCAGAGCAAUAUUACGUGGG	-3.55 ± 0.12	-3.03 ± 0.15

Sequence	self-splicing fitness (ln) (30 °C)	self-splicing fitness (ln) (37 °C)
GCAUAGCAAUAUUACGAAAG	-2.72 ± 0.2	-2.69 ± 0.24
GCAUAGCAAUAUUACGAAGG	-2.02 ± 0.2	-1.31 ± 0.22
GCAUAGCAAUAUUACGAAGU	-3.88 ± 0.28	
GCAUAGCAAUAUUACGACCU	-0.833 ± 0.15	-0.375 ± 0.15
GCAUAGCAAUAUUACGACUC	-0.352 ± 0.16	0.841 ± 0.13
GCAUAGCAAUAUUACGAGGU	-3.73 ± 0.4	-2.07 ± 0.4
GCAUAGCAAUAUUACGAGUU	-3.15 ± 0.13	-1.33 ± 0.1
GCAUAGCAAUAUUACGAUAA	-2.1 ± 0.15	-1.27 ± 0.13
GCAUAGCAAUAUUACGCCGC		-1.28 ± 0.27
GCAUAGCAAUAUUACGCGGA		-1.69 ± 0.31
GCAUAGCAAUAUUACGCUUC		-2.69 ± 0.19
GCAUAGCAAUAUUACGGACA	-1.74 ± 0.15	-0.572 ± 0.14
GCAUAGCAAUAUUACGGGCU	-2.22 ± 0.23	-0.579 ± 0.17
GCAUAGCAAUAUUACGGGGU	-3.74 ± 0.23	-1.99 ± 0.13
GCAUAGCAAUAUUACGUAAC	-2.24 ± 0.13	-1.57 ± 0.14
GCAUAGCAAUAUUACGUACU	-0.89 ± 0.07	-0.056 ± 0.079
GCAUAGCAAUAUUACGUCGU	-3.44 ± 0.17	-1.06 ± 0.13
GCCAAGCAAUAUUACGAAAA	-2.45 ± 0.27	-1.54 ± 0.2
GCCAAGCAAUAUUACGAAUC	-1.25 ± 0.078	-1.5 ± 0.095
GCCAAGCAAUAUUACGAAUU	-3.39 ± 0.13	-1.51 ± 0.1
GCCAAGCAAUAUUACGACCC	-0.14 ± 0.14	-0.813 ± 0.17

Reference: the supplement of paper PMC7877785
